PMC9702538

Legend:
[1] = target: recombinant zebrafish Comp (cartilage oligomeric matrix protein) (zebrafish); experiment: non-reducing agarose/polyacrylamide composite gel electrophoresis; purified recombinant Comp; 0.5% agarose/3% polyacrylamide composite gel, SDS sample buffer with 2 M urea, non-reducing; immunoblot with guinea pig antibodies to zebrafish Comp; recombinant rat COMP as marker of the pentamer
[2] = target: zebrafish Comp, tissue-derived (zebrafish (endogenous in 5 dpf whole zebrafish)); experiment: non-reducing agarose/polyacrylamide composite gel electrophoresis; sequential extracts (TBS; 1 M NaCl/EDTA; 8 M urea) of whole 5 dpf zebrafish; 0.5% agarose/3% polyacrylamide composite gel, non-reducing; immunoblot with guinea pig antibodies to zebrafish Comp

| stoichiometry N [1] | stoichiometry N [2] | Substance |
| --- | --- | --- |
| 5 |  | recombinant zebrafish Comp (cartilage oligomeric matrix protein) |
|  | 5 | zebrafish Comp, tissue-derived (natural protein) |
